# Measurements taken from US20240368277A1 (ORIONIS BIOSCIENCES, published 2024).
# Where a chain is given by its changes, count along the chain named.
# B1: 2HSI22 (VHH)
# VHH: QVQLQESGGGLVQPGGSLRLSCAASGLNFRRYTMGWFRQAPGKEREFVGVINWSDDSIYYADSVKGRFAISRDNTKNTVYLQMASLKPEDTAVYYCAASPQWDTRVRQTMRGKYDYWGQGTQVTVSS
# notes: The entry includes the C-terminal AAA linker, HA tag and His6 tag, as expressed from pMECS
# B2: 2HSI86 (VHH)
# VHH: QVQLQESGGGLVQPGGSLRLSCAASGRTFSSLDMGWFRQAPGKEREFVAGISRSGISQYYADSMKGRFTISRDNAKNLVYLQINSLKPEDTAVYYCAAALTFRGSDLPRDSNYWGQGTQVTVSS
# notes: as for B1
# B3: 2HSI32 (VHH)
# VHH: B2 VHH with L11V, P14A, G16D, A23V, S54T, Q58A, I83M, P88S
# notes: as for B1
# B4: 2HSI35 (VHH)
# VHH: B2 VHH with R27F, S30G, S31G, L32Y, I83M
# notes: as for B1
# B5: 2HSI89 (VHH)
# VHH: B2 VHH with L11V, P14A, G16D, A23V, G26E, I83M, D106N
# notes: as for B1
# B6: 2HSI1 (VHH)
# VHH: B2 VHH with L11V, P14A, G16D, A23V, I83M
# notes: as for B1
# B7: 2HSI98 (VHH)
# VHH: B2 VHH with L11V, P14A, G16D, R19G, A23V, I83M
# notes: as for B1
# B8: 2HSI113 (VHH)
# VHH: B2 VHH with P14A, G16D, A23V, I83M
# notes: as for B1
# B9: 2HSI31 (VHH)
# VHH: B2 VHH with L11V, P14A, G16D, A23V, K65R, I83M
# notes: as for B1
# B10: 2HSI109 (VHH)
# VHH: B2 VHH with L11S, P14A, G16D, A23V, S54T, Q58A, I83M, P88S
# notes: as for B1
# B11: 2HSI77 (VHH)
# VHH: B2 VHH with L11S, P14A, A23V, I83M
# notes: as for B1
# B12: 2HSI54 (VHH)
# VHH: B2 VHH with L11V, P14A, G16D, A23V, D62N, I83M
# notes: as for B1
# B13: 2HSI49 (VHH)
# VHH: B2 VHH with L11V, P14T, G16D, A23V, I83M
# notes: as for B1
# B14: 2HSI44 (VHH)
# VHH: B2 VHH with P14A, A23T, I83M
# notes: as for B1
# B15: 2HSI57 (VHH)
# VHH: B2 VHH with P14A, I83M
# notes: as for B1
# B16: 2HSI110 (VHH)
# VHH: B2 VHH with P14S, G16D, A23V, I83M
# notes: as for B1
# B17: 2HSI68 (VHH)
# VHH: B2 VHH with L11W, A23E, F29S, S54T, Q58A, I83M, P88S
# notes: as for B1
# B18: 2HSI90 (VHH)
# VHH: B2 VHH with L11V, P14A, G16D, A23V, G26E, I83M
# notes: as for B1
# B19: 2HSI80 (VHH)
# VHH: B2 VHH with L11V, P14A, G16D, A23V, I51V, I83M
# notes: as for B1
# B20: 2HSI24 (VHH)
# VHH: B2 VHH with L11V, P14A, G16D, A23V, A40T, I83M
# notes: as for B1
# B21: 2HSI3 (VHH)
# VHH: B2 VHH with L11V, P14A, G16D, R19K, A23V, I83M
# notes: as for B1
# B22: 2HSI40 (VHH)
# VHH: B2 VHH with L11V, P14A, G16D, A23V, N77S, I83M
# notes: as for B1
# B23: 2HSI55 (VHH)
# VHH: B2 VHH with L11V, P14A, G16D, S17P, A23V, I83M
# notes: as for B1
# B24: 2HSI102 (VHH)
# VHH: B2 VHH with L11V, P14A, G16D, A23V, T28A, I83M
# notes: as for B1
# B25: 2HSI105 (VHH)
# VHH: B2 VHH with L11V, P14A, G16D, A23V, I83M, K87R
# notes: as for B1
# B26: 2HSI88 (VHH)
# VHH: B2 VHH with L11V, P14A, G16D, A23V, R27H, I83M
# notes: as for B1
# Biological target: T1, full length human SIRPA expressed on transiently transfected Hek293T cells (pMET7 FLAG-hSIRPA) (human, UniProt P78324 31-504)
# T1 construct: whole, on cells; also called human SIRP1α; human SIRPα
# Assay: FACS, serial dilution of purified VHH on hSIRPA- or empty vector (MOCK)-transfected Hek293T cells; FITC-coupled anti-HA antibody
# Method: Expression-vectors (pMECS) encoding the 27 putative human SIRPA binding VHHs were transformed to WK6 cells. VHHs (with a C-terminal HA and His-tag) were expressed in periplasmic extracts upon IPTG overnight stimulation and purified from the periplasmic extracts using the HisPur Cobalt Spin Plates (ThermoFisher) according to the manufacturer's guidelines. Purified VHHs were applied in a FACS binding-assay at 1 μg/ml: Hek293T cells were transiently transfected with a full length human SIRPA plasmid (pMET7 FLAG-hSIRPA) or an empty vector (MOCK). Two days after transfection, cells were resuspended and incubated with purified VHH in FACS buffer (PBS+0.5 mM EDTA+3% FBS). VHH binding was detected using a FITC-coupled anti-HA Ab (Genscript). Samples were acquired with a MACSQuant X instrument (Miltenyi Biotec) and analyzed using the FlowLogic software (Miltenyi Biotec).
# Based on this initial binding-experiment and on the comparison of the 27 sequences, 5 VHHs (4 members of sequence group 1 which encompasses 26 sequences and 2HSI22 which is a unique representative of sequence group 2) were studied in more detail for binding to human SIRPA. Binding in FACS was measured as described above. In brief, hSIRPA or empty vector (MOCK) transfected cells were incubated with a serial dilution of purified VHH and binding detected using a FITC-coupled anti-HA Ab (GenScript). Data are summarized in FIG. 7 and illustrate concentration dependent specific binding to hSIRPA for all 5 VHHs.
# T1 sequence (P78324 31-504): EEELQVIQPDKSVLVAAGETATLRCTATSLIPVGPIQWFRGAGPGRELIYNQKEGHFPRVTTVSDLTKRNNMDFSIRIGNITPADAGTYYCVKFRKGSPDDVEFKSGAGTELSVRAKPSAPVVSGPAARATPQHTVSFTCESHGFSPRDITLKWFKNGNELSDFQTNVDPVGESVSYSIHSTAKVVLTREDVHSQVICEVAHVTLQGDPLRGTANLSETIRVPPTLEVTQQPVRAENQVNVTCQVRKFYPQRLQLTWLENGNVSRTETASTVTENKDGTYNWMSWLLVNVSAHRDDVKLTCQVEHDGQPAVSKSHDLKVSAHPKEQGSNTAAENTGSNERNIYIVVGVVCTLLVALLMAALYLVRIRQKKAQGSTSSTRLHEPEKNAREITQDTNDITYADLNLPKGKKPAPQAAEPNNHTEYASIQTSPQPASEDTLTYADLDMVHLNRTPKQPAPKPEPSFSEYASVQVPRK
row,binding result,Binder
1,binds,B1
2,binds,B2
3,binds,B3
4,binds,B4
5,binds,B5

# Biological target: T2, His6-tagged recombinant extracellular domain of human signal regulatory protein alpha (hSIRP1α) (human, UniProt P78324 31-373)
# T2 construct: extracellular domain; also called antigen; not shown: His6 tag
# Assay: ELISA, crude periplasmic extracts on coated His6-tagged hSIRP1α extracellular domain
# Method: The VHH library was panned on solid-phase coated antigen (200 μg/ml in 100 mM NaHCO₃, pH 9.3) for 3 rounds. The enrichment for antigen-specific phages was assessed after each round of panning by comparing the number of phagemid particles eluted from antigen-coated wells with the number of phagemid particles eluted from negative control (uncoated blocked) wells. […] There was no enrichment after the 1st panning round. In total, 190 colonies from panning round 2 were randomly selected and analyzed by ELISA for the presence of antigen-specific VHHs in their periplasmic extracts (ELISA using crude periplasmic extracts including soluble VHHs) (see FIG. 5). The antigens used for panning and ELISA screening were the same as the ones used for immunization, using uncoated blocked wells as negative control. […] Based on sequence data of the positive colonies, 27 different full length VHHs were distinguished (see FIGS. 4A, 4B, and 5 and SEQ ID Nos: 300-326).
# T2 sequence (P78324 31-373): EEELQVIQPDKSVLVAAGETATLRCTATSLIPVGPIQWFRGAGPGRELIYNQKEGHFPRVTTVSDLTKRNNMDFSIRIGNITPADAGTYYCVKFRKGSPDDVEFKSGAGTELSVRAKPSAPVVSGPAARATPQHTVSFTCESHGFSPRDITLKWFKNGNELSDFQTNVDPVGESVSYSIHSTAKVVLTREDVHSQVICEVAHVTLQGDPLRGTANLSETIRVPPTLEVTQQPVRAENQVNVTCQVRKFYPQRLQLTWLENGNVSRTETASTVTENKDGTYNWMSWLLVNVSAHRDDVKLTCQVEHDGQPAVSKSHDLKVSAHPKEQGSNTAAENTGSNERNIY
row,binding result,Binder
1,binds,B1
2,binds,B6
3,binds,B2
4,binds,B7
5,binds,B3
6,binds,B8
7,binds,B9
8,binds,B10
9,binds,B4
10,binds,B11
11,binds,B12
12,binds,B13
13,binds,B14
14,binds,B15
15,binds,B16
16,binds,B17
17,binds,B5
18,binds,B18
19,binds,B19
20,binds,B20
21,binds,B21
22,binds,B22
23,binds,B23
24,binds,B24
25,binds,B25
26,binds,B26
